One assay concerns the target T1, human GPR15 (human, UniProt P49685 1-360).
T1 sequence (looked up): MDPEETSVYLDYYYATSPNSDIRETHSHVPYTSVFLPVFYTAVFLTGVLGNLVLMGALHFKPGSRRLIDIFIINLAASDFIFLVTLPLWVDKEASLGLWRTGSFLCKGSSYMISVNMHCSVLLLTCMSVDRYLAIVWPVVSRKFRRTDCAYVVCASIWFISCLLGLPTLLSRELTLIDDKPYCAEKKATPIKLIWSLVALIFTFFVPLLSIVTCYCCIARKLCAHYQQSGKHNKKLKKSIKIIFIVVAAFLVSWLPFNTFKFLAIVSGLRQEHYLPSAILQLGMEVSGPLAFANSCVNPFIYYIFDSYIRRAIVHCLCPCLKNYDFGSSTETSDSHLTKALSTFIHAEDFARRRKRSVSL
Put plainly: cell-based or functional assay.

For a further assay, the target named is T2, mouse GPR15 (mouse, UniProt Q0VDU3 1-360).
T2 sequence (looked up): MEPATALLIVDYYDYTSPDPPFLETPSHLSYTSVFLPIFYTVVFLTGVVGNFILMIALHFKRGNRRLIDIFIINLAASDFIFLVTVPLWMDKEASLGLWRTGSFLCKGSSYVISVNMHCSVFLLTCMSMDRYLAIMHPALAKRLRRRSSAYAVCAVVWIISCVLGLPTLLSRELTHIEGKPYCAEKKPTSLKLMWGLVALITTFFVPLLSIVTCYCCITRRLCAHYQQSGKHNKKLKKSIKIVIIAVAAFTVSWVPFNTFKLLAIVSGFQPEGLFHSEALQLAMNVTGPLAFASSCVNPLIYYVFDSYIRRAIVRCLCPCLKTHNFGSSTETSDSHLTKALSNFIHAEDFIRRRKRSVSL
As to the kind of experiment: cell-based or functional assay.

B1: c10orf99 1-57, synthetic peptide KRRPAKAWSGRRTRLCCHRVPSPNSTNLKGHHVRLCKPCKLEPEPRLWVVPGALPQV (SEQ ID NO: 6) (ligand)
peptide: KRRPAKAWSGRRTRLCCHRVPSPNSTNLKGHHVRLCKPCKLEPEPRLWVVPGALPQV
As to B1, the “EC50 in in vitro cellular assays (aequorin assay; cAMP in CHO-GPR15 and HEK-GPR15 cell lines)” value with human GPR15 was less than 0.01 µM. In the case of QKPQLWVVPGALPQV, the “EC50 of GPR15 activation, Aequorin assay (luminescence, calcium)” value with human GPR15 and in the assay with mouse GPR15 was approximately 2 µM throughout.

These data come from US20160274110A1 (Novartis, published 2016).
